Experimental data from PMC10992996, “Human CRB1 and CRB2 form homo- and heteromeric protein complexes in the retina” (Life Science Alliance, 2024).

Molecular target: T1, CRB1-FLAG p.C1181R (human, UniProt P82279 26-1406, p.C1181R)
T1 construct: Made by site-directed mutagenesis of m1; also called CRB1 p.C1181R; CRB1-FLAG MT; source: HEK293T, transfected, in lysate; not shown: Strep-Strep-FLAG, N-terminal, kept
T1 sequence (looked up): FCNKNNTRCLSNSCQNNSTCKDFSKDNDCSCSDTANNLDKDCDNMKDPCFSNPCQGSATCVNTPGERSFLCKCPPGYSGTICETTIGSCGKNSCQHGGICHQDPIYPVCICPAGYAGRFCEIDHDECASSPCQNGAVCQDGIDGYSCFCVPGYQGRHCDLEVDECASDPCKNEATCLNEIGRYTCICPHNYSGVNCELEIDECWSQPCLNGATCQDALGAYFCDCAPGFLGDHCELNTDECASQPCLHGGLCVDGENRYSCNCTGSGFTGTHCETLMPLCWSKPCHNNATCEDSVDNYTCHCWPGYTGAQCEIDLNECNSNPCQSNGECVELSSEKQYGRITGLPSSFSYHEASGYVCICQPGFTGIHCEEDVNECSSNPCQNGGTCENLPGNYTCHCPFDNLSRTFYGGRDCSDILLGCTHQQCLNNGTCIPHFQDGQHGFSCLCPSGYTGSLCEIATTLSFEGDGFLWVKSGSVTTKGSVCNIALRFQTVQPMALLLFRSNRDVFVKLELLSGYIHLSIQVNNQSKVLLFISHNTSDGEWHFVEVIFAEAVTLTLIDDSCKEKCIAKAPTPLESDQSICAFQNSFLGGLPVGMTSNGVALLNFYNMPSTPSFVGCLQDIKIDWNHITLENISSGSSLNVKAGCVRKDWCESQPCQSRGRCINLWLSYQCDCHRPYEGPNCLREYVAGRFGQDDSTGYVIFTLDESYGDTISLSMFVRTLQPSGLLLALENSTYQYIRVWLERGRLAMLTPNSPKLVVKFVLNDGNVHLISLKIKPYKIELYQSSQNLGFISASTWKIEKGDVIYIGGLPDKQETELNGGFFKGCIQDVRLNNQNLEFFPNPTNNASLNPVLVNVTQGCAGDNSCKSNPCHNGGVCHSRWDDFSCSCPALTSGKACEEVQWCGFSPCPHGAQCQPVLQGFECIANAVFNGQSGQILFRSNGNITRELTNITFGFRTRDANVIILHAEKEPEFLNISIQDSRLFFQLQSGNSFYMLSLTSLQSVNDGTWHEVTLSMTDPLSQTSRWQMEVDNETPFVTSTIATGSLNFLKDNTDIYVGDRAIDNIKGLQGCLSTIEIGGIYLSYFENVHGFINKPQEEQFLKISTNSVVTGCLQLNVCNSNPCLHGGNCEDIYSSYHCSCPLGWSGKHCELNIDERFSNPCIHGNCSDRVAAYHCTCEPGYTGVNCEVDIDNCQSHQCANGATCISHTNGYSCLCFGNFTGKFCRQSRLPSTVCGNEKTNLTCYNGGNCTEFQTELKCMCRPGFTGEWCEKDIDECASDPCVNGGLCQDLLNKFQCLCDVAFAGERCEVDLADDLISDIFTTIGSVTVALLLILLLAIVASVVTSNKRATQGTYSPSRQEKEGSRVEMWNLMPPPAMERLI
Assay: co-IP; HEK293T cells co-transfected pairwise with a FLAG and an HA construct, 48 h; lysis in TBS (30 mM Tris-HCl pH 7.4, 150 mM NaCl) with 0.5% Nonidet P40; FLAG-IP on ANTI-FLAG M2 Affinity Gel 60-90 min at 4°C, elution with FLAG peptide; Western blot with HA and FLAG antibodies; for mutants HA/FLAG signal in eluates relative to WT, three biological replicates
Conditions: partners not purified

B1: Human canonical CRB2 (Crumbs homolog 2) (natural protein)
chain: not shown
notes: Crumbs homolog 2, human, cDNA NM_173689; Stood as bait (FLAG copy) and as prey (HA copy) in the pairwise co-IP matrix; each copy carries only one of the two tags; The FLAG copy was the bait of the mass spectrometry pull-downs; also called CRB2-FLAG; CRB2-HA; source: HEK293T, transfected, in lysate (co-IP); HEK293T, transfected, FLAG-IP on beads, washed and purified with 0.01% SDS (retina …)
percent reduction of the interaction relative to CRB1 WT: 19%
